According to the DeepSol protein solubility set:

Test: soluble on expression in E. coli; label from the status in PepcDB or PDB records

Sequence: MGSDKIHHHHHHMPPRASERSQLRGDENFVHAAHHELYNATQRRNLTKATTTIRTKRLNVTAEMPDWEAVREAGSGIKRDVGQRLDELLVQFEEAVTARGGHVHWARDAKEAGDIVTKLVEETGEKNVVKIKSMATMEIDLNNRLREAGISARETDLAELIVQLGKDKPSHILVPAIHRNRAEIRDIFIREMPNTDDSLSSEPAELAEASRSFLREQFMKAKVAISGANFGIAETGTVTIMESEGNGRMCLTLPETLISVMGIEKIIPTFQDLEVFLQLLPRSSTGERQAPYVSTWSGVTEGDGPKNFHIVLVDNGRTAVLSDEIGREALKCIRCSACLNVCPVYERAGGHAYGSTYPGPIGAILSPQMTGIKNKHDPNAYLPYASSLCGRCNEVCPVKIPFTDILLELRHKKIQTDAPKIEKAMMGAMQLAWGNSTMWNMITRMVFMGRIMGGSNGKITHLPSFLAGWTDVRDTAVPPKKSFRQWFETEEAQQLLADARRDGIHPNNPEVNQKKEN
- soluble on expression in E. coli: not soluble

Sequence: MRGSHHHHHHGMSCSKSVIKEEMLIDLHLEGTFNGHYFEIKGKGKGQPNEGTNTVTLEVTKGGPLPFGWHILCPQFQYGNKAFVHHPDNIHDYLKLSFPEGYTWERSMHFEDGGLCCITNDISLTGNCFYYDIKFTGLNFPPNGPVVQKKTTGWEPSTERLYPRDGVLIGDIHHALTVEGGGHYACDIKTVYRAKKAALKMPGYHYVDTKLVIWNNDKEFMKVEEHEIAVARHHPFYEPKKDK
- soluble on expression in E. coli: soluble

Sequence: MGGIPDITPYPLTYSLGGVIPLSSVLEMLWVEKYRPRSLDDIVDQKHVVERLKQFVKQRNMPHLLFAGPPGTGKTTAAHALAHDLFGENYRQYMLELNASDERGINVIREKVKEFARSRTPPEIPFKIVLLDEADNMTSDAQQALRRLMELYSSVTRFILIANYPSKIIDPIQSRCAFFRFQPLSKQDVIERLRYIAENEGVDYEEEALDAIYEISEGDMRKAINVLQAASYLGKVTVDAVYRVVGMAKPREVREMLATALKGDFTAARSLLRKIMIEYGMSGEDVARQIHRELFSTELKMPEELRVLAADYLGEVHYRLVEGSDDDIQLSAFLAWLTMMSRKLEV
- soluble on expression in E. coli: soluble

Sequence: MNKCFLKIAIVAGEESGDLLGADLISCLSQQTGCKIDLIGVGGRHLKALGLKSFFDFQDIALIGLGTVLKKLPLLLIHIHNLSKFIAKEQPDCLIIIDSPDFTHRVAKKVHVLAPSIPIIKYIAPTVWAWRPERAKAMRKFVDHVLAVFPFEKKIMQDLGGPPTTYVGHRLLTYPPLLTIQSKKRHQSEKKHVFAKQTSSPTLVILPGSRNLEIRYLMPIFREAVEILIQRIPHLHIILPTLPHFVDEIRAFVQSWKNKVEILVDEDAKWHAFSKADVALAALGTVSLELALAKIPMVLCYKLDRFSKLFIFPKIMLWSAALPNIISDKPIVPEYFNEFLRPGMLARQIEELLYNPLLRQAQLDVFEMVEQKMKTEVPSGVIAAQTIVTLLKKRSGSLKFS
- soluble on expression in E. coli: not soluble

Sequence: MSLSVSEQLFPLTIIHLNDFHARFEETNTVSTRCKPDEGERCIGGYARVVSRVKSLQREYADRNPIYLNAGDNFQGTLWYSLLRWNVTAHFLNLLPADVMTLGNHEFEHGIGGLVPFLDVIDSPVVVTNIDDREEPTLQGKYTKSVVLERGGRKIGVVGVIHHLTNTMGMTERLRFLDEVEQLRMEIGRLKEEGVQHIVVLSHCGLEIDRIIARELPDVDVVVGGHSHTFLYNGTADGFPDDPEDTYPIVVEHPEGRTTLIVQAASYAKYVGRITLYFDEEGNIREWEGNPEFLDSSVPQDEEVLAQLAPWREQVNVQANREGHHHHHH
- soluble on expression in E. coli: soluble

Sequence: MKIPSLQSNFNFSAPAGYSAPIAPNRAENAYADYVLDIGKRIPLSAADLSNVYESVIRAVHDSRSRLIDQHTVDMIGNTVLDALSRSQTFRDAVSYGIHNEKVHIGCIKYRNEYELNEESSVKIDDIQSLTCNELYEYDVGQEPIFPICEAGENDNEEPYVSFSVAPDTDSYEMPSWQEGLIHEIIHHVTGSSDPSGDSNIELGPTEILARRVAQELGWSVPDFKGYAEPEREAHLRLRNLNALRQAAMRHEENERAFFERLGTISDRYEASPDFTEYSAVSNIGYGFIQQHDFPGLAINDNLQDANQIQLYHGAPYIFTFGDVDKHNQQ
- soluble on expression in E. coli: soluble

Sequence: KLSSSEKNAILNAVSWYDADAEKVVKGTTKLAGDKLKELLAYLGCKEKELGDYGYFATEKKGEYLEYETESNLRDTENVPLKEAIYTYFLREVKPHVGEAWINLDATKIGYEISFNKYFYKHKPLRSIEDVTADILALEKESDGLIAEILGL
- soluble on expression in E. coli: not soluble

Sequence: MSGRGEPTMKTIIVGIDGSHAAITAALWGVDEAISRAVPLRLVSVIKPTHPSPDDYDRDLAHAERSLREAQSAVEAAGKLVKIETDIPRGPAGPVLVEASRDAEMICVGSVGIGRYASSILGSTATELAEKAHCPVAVMRSKVDQPASDINWIVVRMTDAPDNEAVLEYAAREAKLRQAPILALGGRPEELREIPDGEFERRVQDWHHRHPDVRVYPITTHTGIARFLADHDERVQLAVIGGGEAGQLARLVGPSGHPVFRHAECSVLVVRR
- soluble on expression in E. coli: not soluble

Sequence: MTTSHRPQLEARSGAKAAAYTPTGIEHARLLPGHTTLKYRKFKEEENLRANCAQEDRSNDKSLEEAVMNEEKQDVVGSGNLQETRSEKDQKDSLQELLVTQKNKVEDKAELEGNEQLKGGNSSRRSWRKGTAFGRHKVTKETNIKEHATKKSASGYINDMTKSEYHQEFLHKHVR
- soluble on expression in E. coli: not soluble

Sequence: MSELGAKYQQLQNELEEFIVARQKLETQLQENKIVNEEFDQLEEDTPVYKLTGNVLLPVEQSEARTNVDKRLEFIETEITRCEKNIRDKQEELEKMRSELIKLNNTAASTGPGR
- soluble on expression in E. coli: soluble

Sequence: MQIEKMKLSDLKAADYNPRVDLKPGMQEYEKLKQSILEFGFVDPPIYNIQTGNLVGGHQRVAVAKELGLFNEIEVSVVDLPLDKEKALNVALNKISGRWDEEKLSILLNELDDEAVNLTGFDTEEVDSLLASFNYEEDIEKPIIEDDFQVNEFIENHHEAKTKLGQLWKLGNHYLLCGDATKLSDVEKLLQGKKANLVVTDPPYNVAVKSDNKELNESGREKIMNDDMSDEEFDQFLMSVFQNYSNAMRDDSAIYVFHGSSYQREFENSMNAAGIVVRSQCIWVKNNATFGWSQYRWQHEPVFYAHKKKQAPSWYGDRKQTTIWQDDLLEDLPATIWKVPRDDVATYYHPTQKPLSLIAIPVRNSSKRQDIVLDLFGGSGSTLMTCEQLNRICYTLELDPLFCDVIIERFEKSTGIIAELVE
- soluble on expression in E. coli: not soluble

Sequence: MLKIISANVNGIRSAYKKGFYEYIAASGADIVCVQELKAQEADLSADMKNPHGMHGHWHCAEKRGYSGVAVYSKRKPDNVQIGMGIEEFDREGRFVRCDFGRLSVISLYLPSGSSAEERQQVKYRFLDAFYPMLEAMKNEGRDIVVCGDWNIAHQNIDLKNWKGNQKNSGFLPEEREWIGKVIHKLGWTDMWRTLYPDVPGYTWWSNRGQAYAKDVGWRIDYQMVTPELAAKAVSAHVYKDEKFSDHAPLVVEYDYAAE
- soluble on expression in E. coli: soluble

Sequence: MGSDKIHHHHHHMRTLFSQQQWIDMKVLVTGATSGLGRNAVEFLCQKGISVRATGRNEAMGKLLEKMGAEFVPADLTELVSSQAKVMLAGIDTLWHCSSFTSPWGTQQAFDLANVRATRRLGEWAVAWGVRNFIHISSPSLYFDYHHHRDIKEDFRPHRFANEFARSKAASEEVINMLSQANPQTRFTILRPQSLFGPHDKVFIPRLAHMMHHYGSILLPHGGSALVDMTYYENAVHAMWLASQEACDKLPSGRVYNITNGEHRTLRSIVQKLIDELNIDCRIRSVPYPMLDMIARSMERLGRKSAKEPPLTHYGVSKLNFDFTLDITRAQEELGYQPVITLDEGIEKTAAWLRDHGKLPR
- soluble on expression in E. coli: not soluble

Sequence: MHHHHHHSSGVDLGTENLYFQSMDVGIVALEIYFPSQYVDQAELEKYDGVDAGKYTIGLGQAKMGFCTDREDINSLCMTVVQNLMERNNLSYDCIGRLEVGTETIIDKSKSVKTNLMQLFEESGNTDIEGIDTTNACYGGTAAVFNAVNWIESSSWDGRYALVVAGDIAVYATGNARPTGGVGAVALLIGPNAPLIFERGLRGTHMQHAYDFYKPDMLSEYPIVDGKLSIQCYLSALDRCYSVYCKKIHAQWQKEGNDKDFTLNDFGFMIFHSPYCKLVQKSLARMLLNDFLNDQNRDKNSIYSGLEAFGDVKLEDTYFDRDVEKAFMKASSELFSQKTKASLLVSNQNGNMYTSSVYGSLASVLAQYSPQQLAGKRIGVFSYGSGLAATLYSLKVTQDATPGSALDKITASLCDLKSRLDSRTGVAPDVFAENMKLREDTHHLVNYIPQGSIDSLFEGTWYLVRVDEKHRRTYARRP
- soluble on expression in E. coli: soluble

Sequence: MDTAGIRLTPKEIVSKLNEYIVGQNDAKRKVAIALRNRYRRSLLDEESKQEISPKNILMIGPTGVGKTEIARRMAKVVGAPFIKVEATKFTEVGYVGRDVESMVRDLVDVSVRLVKAQKKSLVQDEATAKANEKLVKLLVPSMKKKASQTNNPLESLFGGAIPNFGQNNEDEEEPPTEEIKTKRSEIKRQLEEGKLEKEKVRIKVEQDPGALGMLGTNQNQQMQEMMNQLMPKKKVEREVAVETARKILADSYADELIDQESANQEALELAEQMGIIFIDEIDKVATNNHNSGQDVSRQGVQRDILPILEGSVIQTKYGTVNTEHMLFIGAGAFHVSKPSDLIPELQGRFPIRVELDSLSVEDFVRILTEPKLSLIKQYEALLQTEEVTVNFTDEAITRLAEIAYQVNQDTDNIGARRLHTILEKMLEDLSFEAPSMPNAVVDITPQYVDDKLKSISTNKDLSAFIL
- soluble on expression in E. coli: not soluble

Sequence: MGSDKIHHHHHHMSDLINIQKKLLPDVLMIMQKRYQILRSIYFSEPVGRRTLAGMLGMSERVLRGEVEFLKAQGLVEIASSGMTVTKEGLVVFRDLESVMNQLSGLHSMEEQLAKKLQIKKCLVVQGDSDDTPWVREEMGRVAVEQLDMALTEKRNIVAVMGGSTMATVAEMMTTDFAKGRELLFVPGRGGIGEDLDNQANTICDKMATKTNTKHRVLYVPEQLGEEAYRSLLKEPAIQEGLRLVQSANAIILGIGDALAMAKRRHTGEDVLEKIIHRKAVGEAFGYYFDEQGEVVHKVPTFGLQFEDLAQIPHIIAVAGGTSKAKAIKSYMKSAPKNTILITDEGAAKSLLKGSNTLLK
- soluble on expression in E. coli: not soluble

Sequence: MGSDKIHHHHHHMDDLRDSLDRIKSICSEIVVQFESSDVAESLKALQKAVNEAAKSWSGSWLGYHSRVYYNQLQPVPPGARFSQEWGLSDGLSNETRGDWCEYDFDSIYNILKSKAINFSLEQLNELANYANEEIPDLREELISIIFSCLASGEDTYLDRLKQEAELCKTSSVGEFVDYLRGGGQFFSRDRVAVLSGSQTPPHIYLQAQLLAVQSPSTVAKSLKKIANRLALHLTNKSRTYMYSSQPGTHVFIGHGHSPLWRDLKDFISERLKLPWDEFNRLPIAGINNTVRLSQMLDSAAIAFLIMTGEDEQSDLKLRARMNVIHEAGLFQGRLGFRRAILLLEEGCENFSNVDGIGYINFPRGNIKACFEDVRMVLEREGLV
- soluble on expression in E. coli: not soluble

Sequence: GMNNRELYGNIRDVYHLLQKNLDKAIEQYDISYVQFGVIQVLAKSGKVSMSKLIENMGCVPSNMTTMIQRMKRDGYVMTEKNPNDQRETLVYLTKKGEETKKQVDVQYSDFLKENCGCFTKEEEGILEDLLLKWKKHLN
- soluble on expression in E. coli: soluble

Sequence: GVKCEPIEELTINVPEEYSSKIIDMVTRRKGEMTMMENTGERINLEFDMPSRGIIGLRTNVLTASAGEAIMAHRFKEYQPFKGDIERRTNGSIIAMESGTAFAYAIDKLQDRGKFFIFPQEEVYAGQV
- soluble on expression in E. coli: not soluble

Sequence: MLGAIIGDIVGSVYEWNNIKTKDFPLFRKDCFFTDDTVMTCAVAEAIMNGGQKDDFIDAMKKYGRMYPNADYGARFNAWLNSDNREPYNSFGNGSAMRISPCAWIMDCGFYAKTGIWPSSRGLTSLSAEVTHNHPEGVKGAMATADAIFLCRFYFGGYCREYEQSINDNPTECKRRIKDYIEKEYDYNLSQTLDEIRPNYRFNETCQETVPQAIIAFLESRDFEDAIRNAISLGGDSDTLAAITCSIAEAAYGIPDWIKDKAYSYLDEPLKDVVRRWENRIKAYLEHHHHHH
- soluble on expression in E. coli: soluble
